This experiment concerns the target TbRIF5-BB2-HA (T. brucei). Briefly: co-IP; cytoplasmic extracts of cells expressing TbDCL1-BB2-FLAG and TbRIF5-BB2-HA; immunoprecipitation with anti-FLAG or anti-HA antibody; Western blot for the common BB2 epitope.

In turn, TbDCL1-BB2-FLAG (enzyme) yielded a percent of TbDCL1 in the precipitate of 50%.
